The values below come from publication PMC9882070 (bioRxiv, 2023).

Common to all, as to test: ThT fluorescence aggregation assay + negative-stain TEM
For series [1], the target named is R1R3Ac, R1R3 tau peptide chemically acetylated with N-succinimidyl acetate.
The target in series [2] is R2R3Ac, R2R3 tau peptide chemically acetylated with N-succinimidyl acetate.
Series [3] deals with the molecule itself.

Where only a bound is given, the exact number is not on record here.

Consider “R1R3Ac, R1R3 tau peptide chemically acetylated with N-succinimidyl acetate”, for which the t1/2max of ThT aggregation in series [1] stood at 39.8 h.
On to “R2R3Ac, R2R3 tau peptide chemically acetylated with N-succinimidyl acetate”, for which the t1/2max of ThT aggregation in series [2] is 98.9 h.
Turning to TENLQHQPGGGQVQIINK [R1R2_12Q tau peptide], in series [3], the “t1/2max of ThT aggregation” value was less than 36 h.
For the molecule KDNIQHVPGGGSVQIVYK [R2R3_2Q tau peptide], the “t1/2max of ThT aggregation” value in series [3] is 72 ± 7.2 h.
Still for that read-out and setting: with TENLKHQPGGGQVQIVYQ [R1R3_23Q tau peptide] the figure was less than 6 h.
TENLQHQPGGGQVQIVYK [R1R3_12Q tau peptide]: the “t1/2max of ThT aggregation” value in series [3] is less than 36 h.
Same read-out and setting: to KDNIKHVPGGGSVQIVYQ [R2R3_3Q tau peptide] belongs 3.84 h.
For TENLQHQPGGGKVQIVYQ [R1R3_13Q tau peptide], in series [3], the binding result is “binds”.
